Target: T1, response regulator Awo_c25920 (Reg) (Acetobacterium woodii) (UniProt H6LEQ6)
T1 sequence: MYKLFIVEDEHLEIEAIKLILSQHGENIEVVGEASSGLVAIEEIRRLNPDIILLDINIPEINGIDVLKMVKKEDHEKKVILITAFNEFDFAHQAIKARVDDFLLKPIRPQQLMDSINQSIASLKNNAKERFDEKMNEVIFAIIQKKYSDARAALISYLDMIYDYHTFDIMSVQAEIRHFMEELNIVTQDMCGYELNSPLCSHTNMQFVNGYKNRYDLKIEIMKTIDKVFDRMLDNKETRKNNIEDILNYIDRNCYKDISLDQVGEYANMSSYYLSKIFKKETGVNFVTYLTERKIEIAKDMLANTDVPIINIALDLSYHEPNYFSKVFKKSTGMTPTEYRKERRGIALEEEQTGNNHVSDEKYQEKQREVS
Assay: EMSA
Conditions: EMSA in 12 ul buffer B: 50 mM Tris-HCl, 125 mM NaCl, 10 mM glycerol, 5 mM MgCl2, pH 7.8, 6% native PAGE in 1X TAE at 4 C, ethidium bromide stain

Sequence: CATAAAACTAAAAAAATAGTCAAAAAAGCAGAACAGGAAAACCTTAGGGTTAACCTGTTCTTTTTATACGTTAGAATTAGAAATGTGATTTTAAAGTACAGGTATTAGACAAAATATTACACTATGTTTTTATGGATAGAGACAAAAAACAGCGTTAGTAAAAGGTTTTCAAGGTGGTTTTAAGAAACAAACAATAATTTTATAAGAATAGCACAAGTAATTACCATAGCCTTTGAATTAAAATATAGTTAGTTCAGTAATAAAATCTTGTAATTAAGGAGGATAGAGCTT (double strand) [291 bp intergenic region upstream of pduA]
- binding: binds
